The values below come from patent US20240101645A1 (HENRY M JACKSON FOUNDATION FOR THE ADVANCEMENT OF MILITARY …, published 2024).

Sequences and labels used below:
B1: COV_2039 (antibody, V domains shown)
VH: QVQLVQSGAEVKKPGASVKVSCKVSGYMLIELSMHWVRQAPGKGLEWMGGFDPEDAETIYAQEFQGRVTMTEDTSTDTAYMELSSLRSEDTAVYYCTTGPAVTNRPADYWGPGTLVTVSS
VL: QSVLTQPPSVSGAPGQRVTISCTGSSSNIGASYDVHWYQQLPGTAPKLLIYANSNRPSGVPDRFSGSKSGTSASLAITGLQAEDEADYYCQSYDSSLSYSVVFGGGTKLTVL
notes: human IgG1
B2: COV_2172 (SEQ ID NO:872/877) (antibody, V domains shown)
VH: EVQLVESGGGVVQPGRSLRLSCAPSGFTFSTYAMHWVRQAPGKGLEWVAVISYDGSIKYYADSVKGRFTISRDNTMNTVFLQMNSLRAEDTAVYFCAKGGERWELFTSFDYWGQGTQVTVSS
VL: QSALTQPRSVSGSPGQSVTISCTGTSSDVGGYNYVSWYQQHPGKAPKLMIYDVSKRPSGVPDRFSGSKSGNTASLTISGLQAEDEADYYCCSYAGSYTFVFGGGTKLTVLG
B3: COV_2077 (antibody, V domains shown)
VH: QVQLQESGPGLVKPSETLSLTCTVSGGSISSYSWSWIRQPPGKGLEWIGYIYYSGSTNYNPSLKSRVTISVDTSKNQFSLKLSSVTAADTAVYYCARESMGRYSLELRQPESAFDYWGRGTLVTVSS
VL: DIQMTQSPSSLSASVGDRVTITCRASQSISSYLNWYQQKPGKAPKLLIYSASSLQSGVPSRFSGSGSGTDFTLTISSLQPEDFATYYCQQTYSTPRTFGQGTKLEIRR
notes: human IgG1
B4: COV_2143 (antibody, V domains shown)
VH: EVQLVESGGGVVQPGRSLRLSCAASGFTFNSFAMLWVRQAPGKGLEWVALFSYDGSNKYYADSVKGRFTISRDNSKNTLYLQMNNLRAVDTAVYYCARASPYDINGYYLHRIAFDIWGQGTMVTVSS
VL: QSVLMQPPSVSGAPGQRVTISCTGSSSNIGAGYDVHWYQQLPGTAPKLLMYGNSNRPSGVPDRFSGSKSGTSASLAITGLQAEDEADYYCQSYDSGLSGWVFGGGTKLTVLG
notes: human IgG1
B5: COV_2093 (antibody, V domains shown)
VH: EVQLVESGGGLVQPGGSLRLSCAASGFMFNRFWMSWVRQAPGKGLEWVTNIKQDGSEKNYVDSVKGRFTISRDNAKNSLYLQMNSLRAEDTAVYYCARDGLYYDFRSPSPFYGMDVWGQGTTVTVSS
VL: DIQMTQSPSSLSASVGDRVTITCRASQSISSYLNWYQHKSGKAPKLLIYAASRLQSGVPSRFSGSGSGTDFTLTIVSLQPEDLATYYCQQSYSTPRTFGGGTKVEIKR
notes: human IgG1
B6: COV_2025 (antibody, V domains shown)
VH: QVHLVQSGAEVKKPGASVKVSCKVSGYTLVELSVHWVRQAPAKGLEWIGGFDPEDGETIYAQKFQGRVTMTEDTSTDTAYMELTNLRSEDTAVYYCVTSQPFVSPNWFDPWGQGTLVTVSS
VL: QSALTQPASVSGSPGQSITISCTGTSRDVGAYNYVSWYQQHPGKAPKLMIYEVTTRPSGVSNRFSGSKSGNTASLTISGLQAEDEADYYCSSYTGSRTLVFGTGTKVTVL
notes: human IgG1
B7: COV_2037 (antibody, V domains shown)
VH: QVQLVQSGAEVKKPGASVKVSCKVSGYTLTELSMHWVRQAPGKGLEWMGGFDPEDAETIYAQKFQGRVTMTEDTSTDTAYMELSSLRSEDTAVYYCATAGAITGTPTNYSYYYGMDFWGQGTTVTVSS
VL: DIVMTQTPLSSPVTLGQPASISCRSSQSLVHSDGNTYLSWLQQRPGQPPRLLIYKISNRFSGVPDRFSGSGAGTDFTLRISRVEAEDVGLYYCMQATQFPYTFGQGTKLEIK
notes: human IgG1
B8: COV_2123 (antibody, V domains shown)
VH: EVQLVESGGGVVQPGRSLRLSCAASGFTFSSYAMHWVRQAPGKGLEWVAVLSYDGSNKYNADSVKGRFTISRDNSKNTLYLQMNSLRVEDTAMYYCARDGVSVTMVRGVIGPLCDYWGQGTLVTVSS
VL: not shown
notes: human IgG1
B9: COV_2174 (antibody, V domains shown)
VH: EVQLAESGGGLVKPGGSLRLSCAASGFTFSDYYMSWIRQAPGKGLEWVSYISSSGSTIYYADSVKGRFTISRDNAKNSLYLQMNSLRAEDTAVYYCARDWSVVVVPAAPAVDVWGQGTTVTVSS
VL: DIQMTQSPSSLSASVGDRVTITCRASQGISNYLAWFQQKPGKAPKSLIYAASSLQSGVPSKFSGSGSGTDFTLTISSLQPEDFATYYCQQYNSYPLTFGGGTKVEIKR
notes: human IgG1
B10: COV_2027 (antibody, V domains shown)
VH: EVQLVESGGGLIQPGGSLRLSCAASGFSVSTNYMSWVRQAPGKGLEWVSIIYSGGGTYYADSVKGRFTISRDTSENTLYLQMNSLRAEDTAVYYCASFLVGATGQPWYWGQGTLVTVSS
VL: not shown
notes: human IgG1
B11: COV_2028 (antibody, V domains shown)
VH: QVQLQESGPGLVKPSGTLSLTCVVSGGSISSSNWWSWVRQPPGKGLEWIGEIYHSGSTNYNPSLKSRVTISVDKSKNQFSLRLTSVTAADTAVYYCARGWNYDYWGQGTLVTVSS
VL: QSALTQPASVSGSPGQSITIACTGTSSDVGSYNLVSWYQQHPGKAPKLMIYEVSKRPSGLSNRFSGSKSGNTASLTISGLQAEDEADYYCYSYAGSSTWVFGGGTKLTVL
notes: human IgG1
B12: COV_3077 (antibody, V domains shown)
VH: QVQLQESGPGLVKPSETLSLTCAVSGYSISSGYYWGWIRQPPGKGLEWIGSIYHSGSTYYNPSLKSRVTISVDTSKNQFSLKLSSVTAADTAVYYCARALYDAFDIWGQGTMVTVSS
VL: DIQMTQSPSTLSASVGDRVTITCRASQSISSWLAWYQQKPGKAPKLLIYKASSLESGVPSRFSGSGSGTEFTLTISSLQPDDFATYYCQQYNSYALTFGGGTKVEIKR
notes: human IgG1
B13: COV_2014 (antibody, V domains shown)
VH: QVQLVQSGAEVKKPGASVKVSCKVSGYTLTELSMHWVRQAPGKGLEWMGGFDPEDGETIYAQKFQGRVTMTEDTSTDTAYMELSSLRSEDTAVYYCATGKINYYDSSGYYGTFDYWGQGTLVTVSS
VL: AIQLTQSPSSLSASVGDRVTITCRASQGISSYLAWYQQKPGKAPKLLIYAASTLQSGVPSRFSGSGSGTDFTLTISSLQPEDFATYYCQQLNSYHLTFGQGTRLEIK
notes: human IgG1

In one test the target is T1, HCoV-HKU1 spike antigens (bead panel) (HCoV-HKU1, UniProt Q5MQD0 13-1300).
T1 sequence: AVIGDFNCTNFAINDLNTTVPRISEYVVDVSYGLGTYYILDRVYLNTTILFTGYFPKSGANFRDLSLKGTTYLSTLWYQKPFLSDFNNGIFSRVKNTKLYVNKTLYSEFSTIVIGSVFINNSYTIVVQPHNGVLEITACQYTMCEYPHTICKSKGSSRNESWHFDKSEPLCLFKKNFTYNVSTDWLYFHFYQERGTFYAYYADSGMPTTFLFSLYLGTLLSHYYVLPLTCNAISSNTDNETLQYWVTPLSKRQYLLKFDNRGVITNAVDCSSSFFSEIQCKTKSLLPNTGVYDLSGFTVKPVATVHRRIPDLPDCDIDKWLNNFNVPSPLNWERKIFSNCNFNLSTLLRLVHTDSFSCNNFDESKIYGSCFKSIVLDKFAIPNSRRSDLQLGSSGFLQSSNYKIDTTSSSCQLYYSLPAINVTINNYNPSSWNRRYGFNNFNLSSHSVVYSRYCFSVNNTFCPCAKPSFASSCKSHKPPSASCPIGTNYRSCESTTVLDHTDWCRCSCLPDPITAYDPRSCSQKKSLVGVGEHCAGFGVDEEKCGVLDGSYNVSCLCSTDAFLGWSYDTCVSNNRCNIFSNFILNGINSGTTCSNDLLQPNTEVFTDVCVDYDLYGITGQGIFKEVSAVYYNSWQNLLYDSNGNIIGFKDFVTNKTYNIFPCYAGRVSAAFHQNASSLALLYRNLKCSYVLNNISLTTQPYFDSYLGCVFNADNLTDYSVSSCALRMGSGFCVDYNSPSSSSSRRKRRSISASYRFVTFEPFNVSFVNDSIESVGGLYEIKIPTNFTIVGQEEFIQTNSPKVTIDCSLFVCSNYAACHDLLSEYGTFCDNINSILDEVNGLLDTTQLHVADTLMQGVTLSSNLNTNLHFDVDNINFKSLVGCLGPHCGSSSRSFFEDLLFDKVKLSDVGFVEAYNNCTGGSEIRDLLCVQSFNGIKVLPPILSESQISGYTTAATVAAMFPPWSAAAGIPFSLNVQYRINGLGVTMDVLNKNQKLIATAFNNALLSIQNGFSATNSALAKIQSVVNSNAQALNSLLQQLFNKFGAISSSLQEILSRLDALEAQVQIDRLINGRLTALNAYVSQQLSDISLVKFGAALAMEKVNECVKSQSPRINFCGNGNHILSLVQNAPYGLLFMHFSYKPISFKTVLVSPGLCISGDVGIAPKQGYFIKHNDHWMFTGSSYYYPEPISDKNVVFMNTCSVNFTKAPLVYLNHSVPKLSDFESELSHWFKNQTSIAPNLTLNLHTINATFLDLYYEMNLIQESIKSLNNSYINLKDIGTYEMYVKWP
Briefly: multiplex bead assay.
Take B1: the binding result is recorded as “no binding”.

As to B2, the binding result is “no binding”.

As to B3, the binding result is reported as “no binding”.

In the case of B4, the binding result was “no binding”.

As to B5, the binding result is “no binding”.

Regarding B6, the binding result was “no binding”.

Consider B7, for which the binding result is given as “no binding”.

B8: the binding result is on record as “no binding”.

As for B9, the binding result is “no binding”.

With B10, the binding result is on record as “no binding”.

In the case of B11, the binding result is “no binding”.

B12: the binding result was “no binding”.

With B13, the binding result is reported as “no binding”.

The next test has as its target T2, HCoV-NL63 spike antigens (bead panel) (HCoV-NL63, UniProt Q6Q1S2 19-1296).
T2 sequence: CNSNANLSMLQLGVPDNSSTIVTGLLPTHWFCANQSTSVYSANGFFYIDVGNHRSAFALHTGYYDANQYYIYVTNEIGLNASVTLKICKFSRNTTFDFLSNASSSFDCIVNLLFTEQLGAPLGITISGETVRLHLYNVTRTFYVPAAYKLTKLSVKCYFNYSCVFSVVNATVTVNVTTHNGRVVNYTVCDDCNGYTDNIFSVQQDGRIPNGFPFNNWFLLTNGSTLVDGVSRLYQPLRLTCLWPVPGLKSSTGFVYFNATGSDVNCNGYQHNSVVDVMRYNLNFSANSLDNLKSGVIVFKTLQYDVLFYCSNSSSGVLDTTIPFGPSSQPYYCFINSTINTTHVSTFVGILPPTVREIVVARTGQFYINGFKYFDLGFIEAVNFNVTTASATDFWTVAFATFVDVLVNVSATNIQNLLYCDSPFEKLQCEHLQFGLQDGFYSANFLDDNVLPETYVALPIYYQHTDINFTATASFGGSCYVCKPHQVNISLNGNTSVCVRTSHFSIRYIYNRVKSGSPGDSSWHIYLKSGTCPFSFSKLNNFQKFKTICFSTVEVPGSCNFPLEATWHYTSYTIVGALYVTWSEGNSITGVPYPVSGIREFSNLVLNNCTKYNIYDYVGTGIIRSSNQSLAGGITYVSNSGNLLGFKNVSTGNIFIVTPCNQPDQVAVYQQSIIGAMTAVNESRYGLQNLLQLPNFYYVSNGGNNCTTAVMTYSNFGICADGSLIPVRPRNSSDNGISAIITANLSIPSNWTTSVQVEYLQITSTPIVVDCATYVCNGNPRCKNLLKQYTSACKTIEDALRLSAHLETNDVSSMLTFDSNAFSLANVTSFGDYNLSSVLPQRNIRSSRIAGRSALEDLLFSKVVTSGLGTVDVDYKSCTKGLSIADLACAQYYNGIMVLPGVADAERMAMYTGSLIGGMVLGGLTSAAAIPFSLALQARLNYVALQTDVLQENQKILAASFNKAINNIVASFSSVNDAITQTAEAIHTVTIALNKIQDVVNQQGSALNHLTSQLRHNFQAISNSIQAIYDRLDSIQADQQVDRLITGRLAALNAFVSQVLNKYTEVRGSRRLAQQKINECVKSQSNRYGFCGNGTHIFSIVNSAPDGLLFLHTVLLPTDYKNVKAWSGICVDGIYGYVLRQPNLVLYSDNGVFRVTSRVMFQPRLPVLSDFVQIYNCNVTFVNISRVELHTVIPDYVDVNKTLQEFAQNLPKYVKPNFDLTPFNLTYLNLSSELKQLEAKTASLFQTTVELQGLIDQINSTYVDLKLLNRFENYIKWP
The experiment in a line: multiplex bead assay.
As to B1, the binding result is on record as “no binding”.

Regarding B2, the binding result is “no binding”.

For B3, the binding result is listed as “no binding”.

For the molecule B4, the binding result was “no binding”.

Turning to B5, the binding result is reported as “no binding”.

With B6, the binding result is reported as “no binding”.

For the molecule B7, the binding result was “no binding”.

In the case of B8, the binding result is recorded as “no binding”.

Regarding B9, the binding result is given as “no binding”.

For B10, the binding result is reported as “no binding”.

As for B11, the binding result is “no binding”.

In the case of B12, the binding result is “no binding”.

For B13, the binding result was “no binding”.
